Results reported in US10705101B2, “Determination of the unbound free fatty acid profiles in biological and industrial specimens” (priority 2013, dated 2020).
Positions count from the first letter of the chain named. In names and notes the source's numbering stands. One block for each molecule: values may come before it.

Key:
Format in all cases: binding
[1] = Probe response profile / specificity for different FFAu at 1 nM; settings: FFAu giving the largest response to 1 nM of each FFAu; several listed in order of degree of specificity
From the text: The abbreviations are: arachidonate (AA), docosahexaenoate (DHA), eicosapentaenoate (EPA), laurate (LAU), linoleate (LA), linolenate (LNA), myristate (MA), oleate (OA), palmitate (PA), palmitoleate (POA), stearate (SA), and vaccenate (VA).
Examples of probes used, generally in groups of 10 or more, to determine FFAu profiles in biological samples such as blood plasma or serum from animals and humans or media from microorganisms are shown in Table 2. In the sequences presented in Table 2 and the sequence listing, amino acids are numbered from the first residue of the mature protein. The initiator methionine residue of the wild-type protein is removed by aminopeptidase activity, leaving an alanine as residue 1. Thus, counting backwards and skipping 0, the initiator methionine is at residue position −1. Specificity indicates the FFAu that gives the largest response to 1 nM of each FFAu when one FFAu dominates the profile and more than one when there is a more even distribution of specificity. Where more than one is indicated they are listed in order of degree of specificity. The abbreviations are: arachidonate (AA), docosahexaenoate (DHA), eicosapentaenoate (EPA), laurate (LAU), linoleate (LA), linolenate (LNA), myristate (MA), oleate (OA), palmitate (PA), palmitoleate (POA), stearate (SA), and vacsinate (VA). The sequences indicate mutations relative to SEQ ID NO: 1. This sequence is a mutated rat intestinal fatty acid binding protein with a Glu 131 to Asp substitution and includes a COOH-terminal affininity tag comprising […], Gly 133 and 6 histidines.
The response profile is the fluorescence change as evaluated as (R−Ro)/Ro (ΔR/Ro) for each FFAu added as a complex of the FFA and albumin so that the FFAu concentration is clamped or buffered at 1 nM for every FFAu for which a calibration has been performed. The calculation is performed simply by rearranging equation 2 to solve for ΔR/Ro. […] However all the probes have different profiles and therefore complementary specificities for different FFAu. Abbreviations are as in Table 2.

[2] = Probe calibration by titration with FFA / FFA-BSA complexes: POA; settings: equilibrium dissociation constant of probe for POA
Protocol: (§1) Calibration: Each probe is calibrated to the extent that the constants in Equation 2 are well determined for all FFAu to be included in profile calculations. Equation 2, which is the form of equation 1 for a single FFAu, relates the FFAu concentration to the equilibrium dissociation constant (Kd), fluorometric constants (Q and Rm) and the measured R values.
(§2) The calibration parameters are determined essentially as described in U.S. Pat. No. 7,601,510 which is incorporated herein by reference and (Huber et al Biochemistry (2006) 45:14263-14274) where the calibrated ADIFAB2 probe was used to generate FFA-BSA complexes with accurate and well buffered FFAu concentrations. To calibrate probes with substantially higher affinities than used in U.S. Pat. No. 7,601,510 and (Huber et al Biochemistry (2006) 45:14263-14274) a boot strap method is used in which a probe having higher affinities is calibrated with ADTFAB2. Such a probe is then used to generate FFA-BSA complexes with FFAu concentrations from 0.1 to 10 nM and these complexes are then used to calibrate other high affinity probes.
(§3) Probe calibration involves titrating the probes with either (i) un-buffered FFA or (ii) BSA-buffered FFA stocks. The un-buffered titrations involve measuring the R-value of a 1 μM probe solution as it is slowly titrated to saturation with small aliquots of a 100 to 250 μM FFA stock (Richieri G V et al. (1992) J Biol Chem 267: 23495-23501, Richieri G V et al. (1999) Mol Cell Biochem 192: 87-94). In this case, the total FFA concentration for each point in the titration is known and a nonlinear fit to the titration data yields the full set of fluorometric constants. In an un-buffered FFA titration, probe concentration is a key variable because the probe binds FFA, directly affecting the FFAu value.
(§4) Alternatively, in a BSA-buffered FFA calibration, the probe solution is titrated with a series of FFA-BSA complexes (600 μM BSA with [FFAu] ranging from 0.1 nM to 4 μM). The titration samples are FFA-BSA complex diluted 50-fold in Measuring Buffer. Probe is added to a concentration of 0.5 μM and the R-value is measured. Because BSA buffers FFAu, its concentration remains constant (i.e. known), even after the addition of probe. […] At least two calibrations with each of the up to 15 different FFA are performed for each probe.
(§5) All of the probes reveal substantial differences for different FFAu and in many cases these differences are related to the aqueous solubility of the FFA. For example, of the FFA in Table 3, SA is the least soluble and MA the most soluble. As discussed in (Richieri G V et al (2000) Biochemistry 39: 7197-7204) the tendency of natural proteins and FABPs, in particular, is for binding constants to be largest (smallest Kd) for the least soluble FFA and conversely for the most soluble FA. In two cases, ADIFAB2 and L11, Kd for SA is substantially the smallest and MA the largest and that pattern is more or less maintained for most of the other probes in Table3 with the exception of L83. In that case MA has the largest affinity while SA's more than 10 fold smaller. To some extent the other calibrations constants follow that behavior; Q is largest for the smallest Kd and Rmax is often largest, so that the probe response tends to be larger for FFA with the larger affinities. The ability to generate mutations that overcome the “natural thermodynamics” allows for probes that have a wide range of specificities and sensitivities than enable the determination of FFAu profiles.

[3] = Probe calibration by titration with FFA / FFA-BSA complexes: PA; settings: equilibrium dissociation constant of probe for PA
Protocol: as §1, §2, §3, §4, §5

[4] = Probe calibration by titration with FFA / FFA-BSA complexes: AA; settings: equilibrium dissociation constant of probe for AA
Protocol: as §1, §2, §3, §4, §5

[5] = Probe calibration by titration with FFA / FFA-BSA complexes: MA; settings: equilibrium dissociation constant of probe for MA
Protocol: as §1, §2, §3, §4, §5

[6] = Probe calibration by titration with FFA / FFA-BSA complexes: LNA; settings: equilibrium dissociation constant of probe for LNA
Protocol: as §1, §2, §3, §4, §5

[7] = Probe calibration by titration with FFA / FFA-BSA complexes: LA; settings: equilibrium dissociation constant of probe for LA
Protocol: as §1, §2, §3, §4, §5

[8] = Probe calibration by titration with FFA / FFA-BSA complexes: SA; settings: equilibrium dissociation constant of probe for SA; read-out: Kd SA
Protocol: as §1, §2, §3, §4, §5

[9] = Probe calibration by titration with FFA / FFA-BSA complexes: OA; settings: equilibrium dissociation constant of probe for OA
Protocol: as §1, §2, §3, §4, §5

[10] = Probe calibration by titration with FFA / FFA-BSA complexes: DHA; settings: equilibrium dissociation constant of probe for DHA
Protocol: as §1, §2, §3, §4, §5

B1: L50BP9 D5: acrylodan-labeled mutant FABP probe: M18L, M21F, I23L, K27C, G31N, L72S, A73T, D74A, T76I, Y117N (protein, UniProt P02693 2-132, looked up, variant M18L M21F I23L K27C G31N L72S A73T D74A T76I Y117N)
Fatty acid-binding protein, …: AFDGTWKVDRNENYEKFLEKFGLNVVCRKLNAHDNLKLTITQEGNKFTVKESSNFRNIDVVFELGVDFAYSSTAGIELTGTWTMEGNKLVGKFKRVDNGKELIAVREISGNELIQTNTYEGVEAKRIFKKE
modifications: acrylodan label
notes: acrylodan-labeled mutant FABP probe: M18L, M21F, I23L, K27C, G31N, L72S, A73T, D74A, T76I, Y117N
Specificity [1]: PA/POA/MA

B2: L36P15 B7-1: acrylodan-labeled mutant FABP probe: M18L, I23V, G31N, F55R, L72W, A73T, D74A, R106A, Q115E, Y117V (protein, UniProt P02693 2-132, looked up, variant M18L I23V G31N F55R L72W A73T D74A R106A Q115E Y117V)
Fatty acid-binding protein, …: B1 Fatty acid-binding protein, … with F21M, L23V, C27K, F55R, S72W, I76T, R106A, Q115E, N117V
modifications: acrylodan label
notes: acrylodan-labeled mutant FABP probe: M18L, I23V, G31N, F55R, L72W, A73T, D74A, R106A, Q115E, Y117V
Specificity [1]: HA/AA/EPA

B3: L128P18 A7: acrylodan-labeled mutant FABP probe: Y14W, M18L, M21I, I23L, K27C, G31G, L38V, S71M, L72W, A73T, D74P, A104I, R106A, Q115E, Y117V (protein, UniProt P02693 2-132, looked up, variant Y14W M18L M21I I23L K27C G31G L38V S71M L72W A73T D74P A104I R106A Q115E Y117V)
Fatty acid-binding protein, …: AFDGTWKVDRNENWEKFLEKIGLNVVCRKLGAHDNLKVTITQEGNKFTVKESSNFRNIDVVFELGVDFAYMWTPGTELTGTWTMEGNKLVGKFKRVDNGKELIIVAEISGNELIETVTYEGVEAKRIFKKE
modifications: acrylodan label
notes: acrylodan-labeled mutant FABP probe: Y14W, M18L, M21I, I23L, K27C, G31G, L38V, S71M, L72W, A73T, D74P, A104I, R106A, Q115E, Y117V
Specificity [1]: DHA/AA

B4: L9BP6 H3: acrylodan-labeled mutant FABP probe: L38Y, F62W, L72A, Y117A (protein, UniProt P02693 2-132, looked up, variant L38Y F62W L72A Y117A)
Fatty acid-binding protein, …: AFDGTWKVDRNENYEKFMEKMGINVVKRKLGAHDNLKYTITQEGNKFTVKESSNFRNIDVVWELGVDFAYSAADGTELTGTWTMEGNKLVGKFKRVDNGKELIAVREISGNELIQTATYEGVEAKRIFKKE
modifications: acrylodan label
notes: acrylodan-labeled mutant FABP probe: L38Y, F62W, L72A, Y117A
Specificity [1]: SA/OA/PA

B5: L118P4 H5: acrylodan-labeled mutant FABP probe: Y14W, M18Q, K27C, L72A, D74Q, R106W (protein, UniProt P02693 2-132, looked up, variant Y14W M18Q K27C L72A D74Q R106W)
Fatty acid-binding protein, …: B4 Fatty acid-binding protein, … with Y14W, M18Q, K27C, Y38L, W62F, D74Q, R106W, A117Y
modifications: acrylodan label
notes: acrylodan-labeled mutant FABP probe: Y14W, M18Q, K27C, L72A, D74Q, R106W
Specificity [1]: DHA

Kd [2]: 87.9 nM
Kd [3]: 5.6 nM
Kd [4]: 90.6 nM
Kd [5]: 47.8 nM
Kd [6]: 89 nM
Kd [7]: 42.2 nM
Kd [8]: 17.6 nM
Kd [9]: 33.9 nM
Kd [10]: 206 nM
B6: L2P22 G6: acrylodan-labeled mutant FABP probe: M18I, G31Y, A73G (protein, UniProt P02693 2-132, looked up, variant M18I G31Y A73G)
Fatty acid-binding protein, …: B4 Fatty acid-binding protein, … with M18I, G31Y, Y38L, W62F, A72L, A73G, A117Y
modifications: acrylodan label
notes: acrylodan-labeled mutant FABP probe: M18I, G31Y, A73G

B7: L10P7 A4: acrylodan-labeled mutant FABP probe: Y14L, M18L, G31Y, A73L, Y117A (protein, UniProt P02693 2-132, looked up, variant Y14L M18L G31Y A73L Y117A)
Fatty acid-binding protein, …: B4 Fatty acid-binding protein, … with Y14L, M18L, G31Y, Y38L, W62F, A72L, A73L
modifications: acrylodan label
notes: acrylodan-labeled mutant FABP probe: Y14L, M18L, G31Y, A73L, Y117A
Specificity [1]: AA/DHA/OA/EPA/LA
